Experimental data taken from article PMC4046564, “Reconstitution of dynein transport to the microtubule plus end by kinesin” (eLife, 2014).

B2: Bik1 (natural protein, S. cerevisiae, UniProt P11709 1-440, looked up)
chain: MDRYQRKIGCFIQIPNLGRGQLKYVGPVDTKAGMFAGVDLLANIGKNDGSFMGKKYFQTEYPQSGLFIQLQKVASLIEKASISQTSRRTTMEPLSIPKNRSIVRLTNQFSPMDDPKSPTPMRSFRITSRHSGNQQSMDQEASDHHQQQEFGYDNREDRMEVDSILSSDRKANHNTTSDWKPDNGHMNDLNSSEVTIELREAQLTIEKLQRKQLHYKRLLDDQRMVLEEVQPTFDRYEATIQEREKEIDHLKQQLELERRQQAKQKQFFDAENEQLLAVVSQLHEEIKENEERNLSHNQPTGANEDVELLKKQLEQLRNIEDQFELHKTKWAKEREQLKMHNDSLSKEYQNLSKELFLTKPQDSSSEEVASLTKKLEEANEKIKQLEQAQAQTAVESLPIFDPPAPVDTTAGRQQWCEHCDTMGHNTAECPHHNPDNQQFF
notes: Bik1 (Clip170 homolog), S. cerevisiae; open-reading frame amplified from genomic DNA; Eluted from Ni-NTA with imidazole; no removal of the tag is told; also called Clip170 homolog; source: sf21 insect cells (baculovirus), purified (Ni-NTA)
B3: Bik1ΔC (domain or fragment, S. cerevisiae, UniProt P11709 1-400, looked up)
chain: MDRYQRKIGCFIQIPNLGRGQLKYVGPVDTKAGMFAGVDLLANIGKNDGSFMGKKYFQTEYPQSGLFIQLQKVASLIEKASISQTSRRTTMEPLSIPKNRSIVRLTNQFSPMDDPKSPTPMRSFRITSRHSGNQQSMDQEASDHHQQQEFGYDNREDRMEVDSILSSDRKANHNTTSDWKPDNGHMNDLNSSEVTIELREAQLTIEKLQRKQLHYKRLLDDQRMVLEEVQPTFDRYEATIQEREKEIDHLKQQLELERRQQAKQKQFFDAENEQLLAVVSQLHEEIKENEERNLSHNQPTGANEDVELLKKQLEQLRNIEDQFELHKTKWAKEREQLKMHNDSLSKEYQNLSKELFLTKPQDSSSEEVASLTKKLEEANEKIKQLEQAQAQTAVESLPIF
notes: Bik1 (Clip170 homolog), S. cerevisiae, lacking the C-terminal 40 amino acids (zinc knuckle domain); also called Bik1ΔC construct lacking the C-terminal 40 amino acids; source: sf21 insect cells (baculovirus), purified (Ni-NTA)

Legend:
Kip2 (S. cerevisiae) = Kip2 (S. cerevisiae) (UniProt P28743)
Bik1 = target: B2; assay: SEC; Superose 6 PC 3.2/30; indicated combinations of purified protein (100 picomoles each) pre-incubated at 1.1 μM for 10 min at 4°C; 50 mM Tris-HCl pH 8.0, 150 mM potassium acetate, 2 mM magnesium acetate, 1 mM EGTA, 5% glycerol, 1 mM DTT; fractions analysed by SDS-PAGE; details: both partners purified
Bik1ΔC = target: B3; assay: as above; details: both partners purified
Kip2 = target: T1, Kip2 (S. cerevisiae, UniProt P28743 1-706, differently phosphorylated forms (doublet on SDS-PAGE; not treated with phosphatase); Atto647N on the SNAP tag in the TIRF assays); assay: as above; details: both partners purified
T1 construct: kinesin Kip2, S. cerevisiae; genomic kip2 locus modified by homologous recombination (8HIS-ZZ-Tev-KIP2-g-FLAG-ga-SNAP); also called Kip2-Atto647; kinesin; source: S. cerevisiae (strain RPY1099, GAL1 promoter), purified (IgG sepharose via ZZ tag, TEV release; for SEC Ni-NTA then IgG sepharose); not shown: His8, N-terminal, cleaved; ZZ, N-terminal, cleaved; SNAP, C-terminal, kept
T1 sequence (looked up): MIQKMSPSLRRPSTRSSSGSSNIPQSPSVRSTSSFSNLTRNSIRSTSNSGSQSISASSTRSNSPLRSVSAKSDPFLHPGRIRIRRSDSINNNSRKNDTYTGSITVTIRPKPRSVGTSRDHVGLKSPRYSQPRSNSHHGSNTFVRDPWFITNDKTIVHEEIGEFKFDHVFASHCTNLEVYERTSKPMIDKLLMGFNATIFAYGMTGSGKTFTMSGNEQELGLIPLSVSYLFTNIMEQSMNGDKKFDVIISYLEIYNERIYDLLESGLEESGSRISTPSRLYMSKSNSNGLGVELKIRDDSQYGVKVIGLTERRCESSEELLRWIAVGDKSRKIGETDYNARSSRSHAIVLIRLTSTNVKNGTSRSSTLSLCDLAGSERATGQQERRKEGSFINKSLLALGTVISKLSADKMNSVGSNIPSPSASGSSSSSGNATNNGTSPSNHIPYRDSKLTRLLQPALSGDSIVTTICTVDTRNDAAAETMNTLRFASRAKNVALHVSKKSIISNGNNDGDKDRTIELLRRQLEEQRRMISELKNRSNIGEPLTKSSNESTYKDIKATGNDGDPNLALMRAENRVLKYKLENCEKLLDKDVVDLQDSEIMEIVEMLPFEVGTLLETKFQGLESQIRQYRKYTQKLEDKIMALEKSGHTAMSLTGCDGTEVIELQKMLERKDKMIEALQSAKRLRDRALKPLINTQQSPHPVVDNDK

With GST-dynein_(331 kDa), P36022 1-4092 the direction of dynein movements on dynamic microtubules (TIRF) with Lis1, Bik1, Bim1 and Kip2: proportion directed to the plus end; without Lis1 or Bik1 dynein moved to the minus end (Kip2 (S. cerevisiae)) was 90%.

B1: Bim1 (natural protein, S. cerevisiae, UniProt P40013 1-344, looked up)
chain: MSAGIGESRTELLTWLNGLLNLNYKKIEECGTGAAYCQIMDSIYGDLPMNRVKFNATAEYEFQTNYKILQSCFSRHGIEKTVYVDKLIRCKFQDNLEFLQWLKKHWIRHKDESVYDPDARRKYRPIITNNSATKPRTVSNPTTAKRSSSTGTGSAMSGGLATRHSSLGINGSRKTSVTQGQLVAIQAELTKSQETIGSLNEEIEQYKGTVSTLEIEREFYFNKLRDIEILVHTTQDLINEGVYKFNDETITGHGNGNGGALLRFVKKVESILYATAEGFEMNDGEDELNDKNLGEHGTVPNQGGYANSNGEVNGNEGSNHDVIMQNDEGEVGVSNNLIIDEETF
notes: Bim1 (EB1 homolog), S. cerevisiae; open-reading frame amplified from genomic DNA; also called EB1 homolog; source: E. coli BL-21(DE3), purified (Strep-Tactin, TEV release); not shown: His6, N-terminal, cleaved; Strep, N-terminal, cleaved
B1: binds (Bik1); binds (Bik1ΔC).

B2: binds (Kip2).

B3: binds (Kip2).
